Measurements published in patent US20150253303A1 (FORSCHUNGSVERBUND BERLIN E V, published 2015).

B1: LRRC8E, endogenous (native) human protein (other, UniProt Q6NSJ5 1-796, looked up)
chain: MIPVAEFKQFTEQQPAFKVLKPWWDVLAEYLTVAMLMIGVFGCTLQVTQDKIICLPNHELQENLSEAPCQQLLPRGIPEQIGALQEVKGLKNNLDLQQYSFINQLCYETALHWYAKYFPYLVVIHTLIFMVCTSFWFKFPGTSSKIEHFISILGKCFDSPWTTRALSEVSGENQKGPAATERAAATIVAMAGTGPGKAGEGEKEKVLAEPEKVVTEPPVVTLLDKKEGEQAKALFEKVKKFRMHVEEGDILYTMYIRQTVLKVCKFLAILVYNLVYVEKISFLVACRVETSEVTGYASFCCNHTKAHLFSKLAFCYISFVCIYGLTCIYTLYWLFHRPLKEYSFRSVREETGMGDIPDVKNDFAFMLHLIDQYDSLYSKRFAVFLSEVSESRLKQLNLNHEWTPEKLRQKLQRNAAGRLELALCMLPGLPDTVFELSEVESLRLEAICDITFPPGLSQLVHLQELSLLHSPARLPFSLQVFLRDHLKVMRVKCEELREVPLWVFGLRGLEELHLEGLFPQELARAATLESLRELKQLKVLSLRSNAGKVPASVTDVAGHLQRLSLHNDGARLVALNSLKKLAALRELELVACGLERIPHAVFSLGALQELDLKDNHLRSIEEILSFQHCRKLVTLRLWHNQIAYVPEHVRKLRSLEQLYLSYNKLETLPSQLGLCSGLRLLDVSHNGLHSLPPEVGLLQNLQHLALSYNALEALPEELFFCRKLRTLLLGDNQLSQLSPHVGALRALSRLELKGNRLEALPEELGNCGGLKKAGLLVEDTLYQGLPAEVRDKMEEE
notes: whole, on cells; Untagged endogenous protein in cell lysates; also called native LRRC8E
B2: LRRC8A (leucine-rich repeat-containing protein 8, family member A), human (other, UniProt Q8IWT6 1-810, looked up)
chain: MIPVTELRYFADTQPAYRILKPWWDVFTDYISIVMLMIAVFGGTLQVTQDKMICLPCKWVTKDSCNDSFRGWAAPGPEPTYPNSTILPTPDTGPTGIKYDLDRHQYNYVDAVCYENRLHWFAKYFPYLVLLHTLIFLACSNFWFKFPRTSSKLEHFVSILLKCFDSPWTTRALSETVVEESDPKPAFSKMNGSMDKKSSTVSEDVEATVPMLQRTKSRIEQGIVDRSETGVLDKKEGEQAKALFEKVKKFRTHVEEGDIVYRLYMRQTIIKVIKFILIICYTVYYVHNIKFDVDCTVDIESLTGYRTYRCAHPLATLFKILASFYISLVIFYGLICMYTLWWMLRRSLKKYSFESIREESSYSDIPDVKNDFAFMLHLIDQYDPLYSKRFAVFLSEVSENKLRQLNLNNEWTLDKLRQRLTKNAQDKLELHLFMLSGIPDTVFDLVELEVLKLELIPDVTIPPSIAQLTGLKELWLYHTAAKIEAPALAFLRENLRALHIKFTDIKEIPLWIYSLKTLEELHLTGNLSAENNRYIVIDGLRELKRLKVLRLKSNLSKLPQVVTDVGVHLQKLSINNEGTKLIVLNSLKKMANLTELELIRCDLERIPHSIFSLHNLQEIDLKDNNLKTIEEIISFQHLHRLTCLKLWYNHIAYIPIQIGNLTNLERLYLNRNKIEKIPTQLFYCRKLRYLDLSHNNLTFLPADIGLLQNLQNLAITANRIETLPPELFQCRKLRALHLGNNVLQSLPSRVGELTNLTQIELRGNRLECLPVELGECPLLKRSGLVVEEDLFNTLPPEVKERLWRADKEQA
notes: whole, on cells; Used for endogenous LRRC8A and for transfected LRRC8A; Co-IPs were done on detergent lysates; also called endogenous LRRC8A; native LRRC8A

Assays:
[1] = target: B2; assay: immunoprecipitation of endogenous proteins from WT HEK lysate
[2] = target: GFP-ClC-1 (human ClC-1 Cl- channel in pEGFP-C1) (human, UniProt P42212 1-238 = GFP; P35523 1-988); assay: co-immunoprecipitation from double-transfected HEK cells, Western blot
Description: The changed banding pattern of the mutant might result from altered posttranslational modifications. n.t., non-transfected. (C) Immunofluorescence using HA antibody of non-permeabilized versus permeabilized HeLa cells transfected with GFPLRRC8A carrying an HA-tag as indicated. Overlays of GFP (green) and HA (red) labeling. Insets show exclusively HA-staining. Scale bar, 20 μm. (D) LRRC8A co-precipitated epitopetagged LRRC8B through LRRC8E in double-transfected HEK cells. LRRC8B and LRRC8D were poorly expressible. […] (F) Epitope-tagged LRRC8B through LRRC8E co-precipitated LRRC8A. (G) Heteromerization of endogenous LRRC8 proteins. LRRC8A co-precipitated LRRC8E (for which a suitable antibody was available) in immunoprecipitation with an LRRC8A antibody from wild-type (WT) HEK cell lysate, but not from the LRRC8A−/− knockout (KO, clone 3E7). […] Lysate equivalent to 25% of input was loaded as reference (input).
For co-immunoprecipitation, HEK cells were co-transfected with plasmids (6 μg total) encoding myc-tagged or untagged LRRC8A and N-terminal fusion constructs of LRRC8A-E or ClC-1 (or soluble GFP) on 10 cm dishes using PEI as described above. […] After four washes with 500 μl IP buffer, precipitates were eluted in 40 μl Lämmli sample buffer, separated by SDS-PAGE and analyzed by Western blot as indicated. […]

[3] = target: LRRC8D-GFP (human LRRC8D fused C-terminally to GFP) (human, UniProt Q7L1W4 1-858; P42212 1-238 = GFP); assay: cell-based or functional assay
[4] = target: LRRC8E-GFP (human LRRC8E fused C-terminally to GFP) (human, UniProt Q6NSJ5 1-796; P42212 1-238 = GFP); assay: cell-based or functional assay
[5] = target: LRRC8C-GFP (human LRRC8C fused C-terminally to GFP) (human, UniProt Q8TDW0 1-803; P42212 1-238 = GFP); assay: cell-based or functional assay
[6] = target: T1, KCC1 plasma membrane ion transporter, endogenous in HEK cells (UniProt Q9UP95 1-1085, limits assumed); assay: immunoprecipitation with LRRC8A antibody from WT HEK cell lysate, Western blot
T1 construct: whole, on cells; also called SLC12A4
T1 sequence (looked up): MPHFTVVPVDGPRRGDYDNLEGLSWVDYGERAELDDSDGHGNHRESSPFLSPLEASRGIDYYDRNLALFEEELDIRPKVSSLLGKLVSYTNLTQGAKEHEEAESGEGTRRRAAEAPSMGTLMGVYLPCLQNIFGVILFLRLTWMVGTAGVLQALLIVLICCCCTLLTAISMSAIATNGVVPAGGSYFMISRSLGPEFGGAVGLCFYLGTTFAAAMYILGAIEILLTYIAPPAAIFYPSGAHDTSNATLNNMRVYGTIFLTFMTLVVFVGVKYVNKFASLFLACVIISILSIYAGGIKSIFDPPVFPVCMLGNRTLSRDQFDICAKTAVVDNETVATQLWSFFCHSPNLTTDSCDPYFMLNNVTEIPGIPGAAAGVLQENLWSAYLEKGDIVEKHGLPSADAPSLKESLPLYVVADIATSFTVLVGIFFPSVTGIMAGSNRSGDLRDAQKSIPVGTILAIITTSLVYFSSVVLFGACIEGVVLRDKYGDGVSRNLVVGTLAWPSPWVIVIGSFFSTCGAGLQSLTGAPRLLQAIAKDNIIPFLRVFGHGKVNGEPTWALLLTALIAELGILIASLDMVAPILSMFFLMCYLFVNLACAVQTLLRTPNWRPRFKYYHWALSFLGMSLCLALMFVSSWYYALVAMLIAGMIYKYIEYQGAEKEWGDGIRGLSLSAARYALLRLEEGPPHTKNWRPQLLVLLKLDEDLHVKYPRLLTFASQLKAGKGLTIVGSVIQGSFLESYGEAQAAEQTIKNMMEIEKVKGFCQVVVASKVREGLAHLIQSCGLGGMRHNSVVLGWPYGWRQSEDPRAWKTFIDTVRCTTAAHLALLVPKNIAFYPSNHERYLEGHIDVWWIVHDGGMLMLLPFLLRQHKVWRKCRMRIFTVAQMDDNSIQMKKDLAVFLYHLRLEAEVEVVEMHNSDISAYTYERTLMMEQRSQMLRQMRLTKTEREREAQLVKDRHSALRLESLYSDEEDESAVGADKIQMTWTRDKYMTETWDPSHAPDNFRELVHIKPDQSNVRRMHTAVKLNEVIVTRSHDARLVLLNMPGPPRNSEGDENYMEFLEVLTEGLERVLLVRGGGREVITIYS

B1
binding result [1]: binds

B2
binding result [2]: no binding | V1/2 from Boltzmann fits (voltage-dependent inactivation of ICl(swell)) [3]: 72.4 mV | V1/2 from Boltzmann fits (voltage-dependent inactivation of ICl(swell)) [4]: 45.9 mV | V1/2 from Boltzmann fits (voltage-dependent inactivation of ICl(swell)) [5]: 116 mV | binding result [6]: no binding
